Where a chain is given by its changes, count along the chain named.
B1: EBOV-507 (antibody, V domains shown)
VH: QVQLVQSGAEVKKPGASVKVSCKASGYTFNNYLINWVRQAPGQGLEWMGWINPHSGGTEYAQQFQGRLTVTRDTSIRTAYMELRGLTFDDSAMYYCWIWFRSETFDFWGQGTLVTVSS
VL: DIQMTQSPSAMSASVGDRVTITCRASQDISNYLAWFQQKPGQGPKRLIFEASILHSGVPSRFSGSGSGTEFTLTISSLQPEDFATYYCLQHNTYLTFGQGTKVEIK
B2: EBOV-451 (antibody, V domains shown)
VH: EVQLVESGGSVVRPGGSLRLSCAASGFKFDEYGMSWVRQAPGKGLEWVSGITWNGGVRTYADSVKGRFTISRDNAKNSVYLQMKSLRGEDTALYYCVSWGERYDAYFDYWGQGTLVTVSS
VL: EIVLTQSPGSLSLSPGERATLSCRASQSVNSRYFAWYQQRPGQAPRLLIYATSTRATGIPDRFSGSGSGTDFTLTISRLEPEDFAVYSCQQYGSSPYTFGQGTKLEIK
B3: EBOV-520 (antibody, V domains shown)
VH: QVQLQESGPGLGKPSETLSLSCTVSGASIRGYFWNWIRQPPGKGLEWIGYIHSTGSTNYNPSLKSRVTISVDTSKNQVSLNVNSVTAADTAVYFCARGAWNVATVYYYYGMDVWGQGTLVTVSS
VL: B2 VL with S10T, N30S, R32S, R40K, Y50S, A51G, T57P, S88F, S94N, P96L
B4: EBOV-510 (antibody, V domains shown)
VH: QVQLQESGPGLVKPSQTLSLTCTVSGGSITSGDYYLTWVRQPPGKGLEWIGHIYYSGSTSYNPSLKSRLLMSVDTSKNQFSLRLSSVTAADTAVYYCARESDGDPSRLYFYFAMDVWGQGTLVTVSS
VL: QSALTQPASVSGSPGQSITISCTGTSSDVGGSYFVSWYQHHPGKAPKLMISEVSNRPSGVSNRFSGSKSGNTASLTISGLRTEDEADYYCSSYTSNTTLVFGGETKVTVL
B5: EBOV-442 (antibody, V domains shown)
VH: EVQLVESGGGLVKPGGSLRLSCTGSGGTGFTFKYAGMSWVRQAPGKGPEWIGRIKSRIDGGTTDYAAPVKDRFIVSRDDSRNTLYLQMNSLKTEDTAVYYCATGSGKGPSASFGESYYYYDFINVWGKGTTVTVSS
VL: ESVLTQSPGTLSLSPGERATLSCRASQSISRKYLAWYQQKPGQAPRLLIYGSSSRATGIPDRFSGSGSGTDFTLTISRLEPEDFAVYYCHQYESSPWTFGQGTKVEIK
B6: EBOV-446 (antibody, V domains shown)
VH: QVQLVQSGAEVKKPGASVKVSCKASGYTFTDYYIYWVRQAPGQGLEWMGWLNPNSGGTDYAQKFQGRVTMTRDTSIRTAYMDLSRLRSDDTAVYYCARGRRHGAYVDWGQGTLVTVSS
VL: DIQLTQSPSFLSASVGDRVTITCRASQGISTYLAWYQQKPGKAPNLLIYDTSTLQSGVPSRFSGSASGTEFTLTISSLQPEDFATYYCQQLNFYLGGLTFGQGTRLEIK
B7: EBOV-514 (antibody, V domains shown)
VH: QVQLQESGPGLVKPSQTLSLTCTVSGASITGGDDFWSWIRQPPGKGLEWIGFIHHSGNAYYRSSLKSRVHFSVDTSKDQFSLTLTSVTAADTAVYYCARDKAQAYGLLYHYHTDVWGKGTLVTVSS
VL: EIVMTQSPATLSVSPGERATLSCRASQSVSSNLAWYQQKPGLAPRLLIYGAFTRATDIPDRFSGSGSGTEFTLTISSLQSEDFAIYYCQYYNDWPPGYTFGQGTKLEIK
B8: EBOV-517 (antibody, V domains shown)
VH: EVQLVESGGGLVQPGGSLRLSCGASGFTFNKYWMTWVRQAPGKGLEWVANINQDGSEKYFAESVKGRFTVSRDNAKNSLYLQMNSLRAEDTAVYYCARGASIEVEILYYYHMDVWGKGTLVTVSS
VL: EIVMTQSPATLSVSPGERATLSCRASQSITTHLAWYQQKPGQAPRLLIYDTSTRATGIPARFSGSGSGTEFTLTISNMQSEDFAVYYCQQYHTWPPLTFGGGTKVEIK
B9: EBOV-508 (antibody, V domains shown)
VH: QVQLVQSGAEVKKPGASVKVSCKASGYTFINYYMHWVRQAPGQGLEWMGTINPSTGRPNYAQKFQGRVTLTRDTSTTTVDMELSSLTSEDTAVYYCVSFQFYFDYWGQGTLVTVSS
VL: DIQMTQSPSAMSPSVGDRVTITCRASQGINNYLAWFQQKPGKVPKRLIYAASNLQSGVPSRFSGSGSGTEFTLTISSLQPEDFATYYCLQHNSYPWTFGQGTKVEIN
B10: EBOV-511 (antibody, V domains shown)
VH: QLQLQESGPGLVKPSETLSLSCTVSGDSISANNYFWGWIRQPPGKELEWIGSIHNSGSTYYNPSLKSRVTTSVDTSRTQFSLKLHSVTAADAAIYYCARHLAPISGVIFIPSFFDSWGQGTLVTVSS
VL: EIVMTQSPATLSVSPGERATLSCRASQSVSSNLAWYQQRPGQAPRLLIFDASTRATGVPARFSGSGSGTEFTLTISSLQSEDFALYYCQQYNDWPPRLTFGGGTKVEIK
B11: EBOV-524 (antibody, V domains shown)
VH: QVQLVESGGGVVQPGGSLRLSCAASGFKFSTYGMNWVRQVPGQGLEWVSFVRHDGSNKYYSDSVKGRFTIFRDNSNNKLYLQMNNLRAEDTAVYYCAKDVLDCSRADCFIYYYYMDVWGKGTLVTVSS
VL: DIQMTQSPSSVSASPGDRVTITCRASQTISGWLAWYQQKPGKAPKLLIYDVSTLQSGVPSRFSGGGSGTEFTFTISSLQPEDYATYFCQQGNRIPLSFGGGTRVEIK
B12: EBOV-434 (antibody, V domains shown)
VH: QVQLVQSGAEVKKPGASVKVSCKASGYTFTGYYMFWVRQAPGQGLEWMGWINPNSGGTNYTQKFQGRVTMTRDTSISTAYMELSRLKSDDTAVYYCARDSGELLFVGSDVWGQGTLVTVSS
VL: DIQMTQSPSSVSASVGDRVTITCRASLDISYWLAWYQQKPGKAPKLLIYAASNLQSGVPSRFSGSGSGTDFTLTISSLQPEDFATYYCQQANSFPQTFGQGTRLELK
B13: EBOV-518 (antibody, V domains shown)
VH: QVTLKESGPTLVKPTQTLTLTCTFSGFSMNSSGMSVTWIRQPPGKALECLALIYWDDDKWYGPSLETRVTITKDASKNQVVLTMTNMDPVDTATYYCAHSGGLVAGAFDYWGQGTLVTVSS
VL: EIVMTQSPDSLTVSLGERATINCRSSQSVLYRVNSKNYLAWYQQKAGQTPKLIINWASTRESGVPDRFSGSGSGTDFTLTISSLQAEDVAVYYCQQYYNSPRTFGQGTKVEIK

Columns and labels:
[1] = biological target: MARV GP [change] (Lake Victoria marburgvirus) (UniProt Q1PD50)
[2] = biological target: SUDV GP [change] (Sudan ebolavirus) (UniProt Q7T9D9)
[3] = biological target: BDBV GP [change] (Bundibugyo ebolavirus (BDBV), strain 200706291 Uganda); test: ELISA, coated recombinant GP ΔTM
[4] = biological target: EBOV GP [change] (Zaire ebolavirus (EBOV), strain Makona); test: ELISA, coated recombinant GP ΔTM

| Binder | EC50 [1] | EC50 [2] | EC50 [3] | EC50 [4] |
| --- | --- | --- | --- | --- |
| B1 | > 10 µg/mL | 0.002 µg/mL | 0.004 µg/mL | 0.001 µg/mL |
| B2 | > 10 µg/mL | 0.003 µg/mL | 0.007 µg/mL | 0.001 µg/mL |
| B3 | > 10 µg/mL | 0.136 µg/mL | 0.072 µg/mL | 0.012 µg/mL |
| B4 | > 10 µg/mL | 3.09 µg/mL | 0.261 µg/mL | 0.143 µg/mL |
| B5 | > 10 µg/mL | 0.006 µg/mL | 0.003 µg/mL | 0.001 µg/mL |
| B6 | > 10 µg/mL | 0.722 µg/mL | 0.002 µg/mL | 0.009 µg/mL |
| B7 | > 10 µg/mL | 0.015 µg/mL | 0.01 µg/mL | 0.007 µg/mL |
| B8 | > 10 µg/mL | 1.69 µg/mL | 0.865 µg/mL | 0.042 µg/mL |
| B9 | > 10 µg/mL | 0.003 µg/mL | 0.005 µg/mL | 0.002 µg/mL |
| B10 | > 10 µg/mL | 0.387 µg/mL | 0.289 µg/mL | 0.094 µg/mL |
| B11 | > 10 µg/mL | 0.701 µg/mL | 0.146 µg/mL | 0.123 µg/mL |
| B12 | > 10 µg/mL | 1.11 µg/mL | 0.415 µg/mL | 0.304 µg/mL |
| B13 | 0.78 µg/mL | 0.352 µg/mL | 2.63 µg/mL | 0.283 µg/mL |
